Tests used:
Assay in all cases: cell-based or functional assay
[1] = biological target: T1, neuraminidase of influenza A/Vietnam/1203/04 (H5N1, clade 1) on live virus (influenza A/Vietnam/1203/04 (H5N1), UniProt Q6DPL2 1-449)
[2] = biological target: T1, neuraminidase of influenza …; remark: listed apart in the source
[3] = biological target: NA (neuraminidase) used in the NA activity inhibition experiments of Example 9

T1 sequence (Q6DPL2 whole entry): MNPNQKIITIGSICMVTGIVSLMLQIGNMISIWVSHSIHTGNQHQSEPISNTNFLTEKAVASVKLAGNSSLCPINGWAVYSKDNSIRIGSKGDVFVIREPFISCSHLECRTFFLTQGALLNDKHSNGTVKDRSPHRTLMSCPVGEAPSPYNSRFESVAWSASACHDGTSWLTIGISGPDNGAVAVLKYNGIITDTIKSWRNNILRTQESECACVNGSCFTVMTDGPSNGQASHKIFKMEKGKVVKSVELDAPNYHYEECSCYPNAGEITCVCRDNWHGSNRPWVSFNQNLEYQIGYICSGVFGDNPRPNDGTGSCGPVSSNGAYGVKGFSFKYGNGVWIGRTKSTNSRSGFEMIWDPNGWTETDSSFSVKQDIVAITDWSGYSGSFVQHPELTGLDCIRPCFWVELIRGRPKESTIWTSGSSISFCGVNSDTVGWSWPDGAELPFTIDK

B1: 2B9 anti-N1 neuraminidase monoclonal antibody (antibody, V domains shown)
VH: QVQLQQSGAELVRPGTSVKMSCKAAGYTFTNYWIGWVKQRPGHGLEWIGDIYPENDFSNYNEKFKDKATLTADTSSRTAYMQLSSLTSEDSAIYYCVRANEGWYLDVWGTGTTVSVSS
VL: DIQMTQSPASLSESVGETVTITCRASENIYSYLAWYQQKQGKSPQLLVYFAKTLAEGVPSTFSGSGSGTLFSLKINSLQPEDFGNYYCQHHYGTPYTFGGGTKLEIKR
- NA assay IC50 (Antibody IC50) [1]: < 1 µg/mL
- IC50 of 2B9 against various influenza strains (NA inhibition) [2]: ≤ 1 µg/mL
- IC50, inhibition of NA activity [3]: 0.82 µg/mL

Source: US8734803 (IBIO, dated 2014)
